Test system: Escherichia coli TOP10
Experiment: shrunken log2 fold change of peptide-encoding DNA abundance (4.5 h post-induction vs induction); higher = less antimicrobial activity (less host growth inhibition)
Conditions: time post-induction: 4.5 h; library: site-saturation at positions 5, 18, 19, 20
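Also: peptides expressed intracellularly from a pBAD plasmid library in pooled LB shake-flask culture, induced with 0.3% L-arabinose, DNA abundance read by NGS, three biological replicates, DESeq2 with apeglm shrinkage.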

For RRIRPRPPRLPRPRPRPLQEPRP, the “shrunken log2 fold change” value was 0.18.

RRIRVRPPRLPRPRPRPVEYPRP was tested, and the “shrunken log2 fold change” value was -1.63.

RRIRERPPRLPRPRPRPKHSPRP was tested, and the “shrunken log2 fold change” value was 0.111.

For RRIRGRPPRLPRPRPRPIDMPRP, the “shrunken log2 fold change” value was -0.0207.

For RRIRTRPPRLPRPRPRPILTPRP, the “shrunken log2 fold change” value was -0.139.

For RRIRARPPRLPRPRPRPCLWPRP, the “shrunken log2 fold change” value was -0.199.

RRIRNRPPRLPRPRPRPMWDPRP was tested, and the “shrunken log2 fold change” value was -0.021.

With RRIRTRPPRLPRPRPRPQLQPRP the “shrunken log2 fold change” value was -0.0711.

In the case of RRIRSRPPRLPRPRPRPRRQPRP, the “shrunken log2 fold change” value is reported as 0.681.

For RRIRFRPPRLPRPRPRPWKLPRP, the “shrunken log2 fold change” value was -0.0164.

With RRIRTRPPRLPRPRPRPKRDPRP the “shrunken log2 fold change” value was 0.187.

With RRIRVRPPRLPRPRPRPKHSPRP the “shrunken log2 fold change” value was -0.189.

With RRIRNRPPRLPRPRPRPEEQPRP the “shrunken log2 fold change” value was 0.202.

For RRIRCRPPRLPRPRPRPATLPRP, the “shrunken log2 fold change” value was -0.154.

RRIRSRPPRLPRPRPRPCIGPRP was tested, and the “shrunken log2 fold change” value was -0.18.

RRIRARPPRLPRPRPRPSQWPRP was tested, and the “shrunken log2 fold change” value was 0.24.

For RRIRIRPPRLPRPRPRPPHPPRP, the “shrunken log2 fold change” value was 0.154.

For RRIRARPPRLPRPRPRPSQLPRP, the “shrunken log2 fold change” value was 0.262.

RRIRWRPPRLPRPRPRPMWCPRP was tested, and the “shrunken log2 fold change” value was -0.166.

For RRIRWRPPRLPRPRPRPNHRPRP, the “shrunken log2 fold change” value was -0.0538.

With RRIRERPPRLPRPRPRPFNTPRP the “shrunken log2 fold change” value was -0.124.

In the case of RRIRNRPPRLPRPRPRPYSHPRP, the “shrunken log2 fold change” value is reported as -0.317.

RRIRKRPPRLPRPRPRPANTPRP was tested, and the “shrunken log2 fold change” value was -0.0533.

With RRIRCRPPRLPRPRPRPPAFPRP the “shrunken log2 fold change” value was 0.504.

For RRIRNRPPRLPRPRPRPMFEPRP, the “shrunken log2 fold change” value was 0.29.

With RRIRWRPPRLPRPRPRPFDWPRP the “shrunken log2 fold change” value was 0.344.

RRIRSRPPRLPRPRPRPGFGPRP was tested, and the “shrunken log2 fold change” value was 0.463.

With RRIRPRPPRLPRPRPRPSLNPRP the “shrunken log2 fold change” value was -0.539.

In the case of RRIRERPPRLPRPRPRPDLMPRP, the “shrunken log2 fold change” value is reported as 0.0435.

RRIRQRPPRLPRPRPRPQDEPRP was tested, and the “shrunken log2 fold change” value was 0.104.

With RRIRERPPRLPRPRPRPTIGPRP the “shrunken log2 fold change” value was -0.323.

RRIRKRPPRLPRPRPRPMSHPRP was tested, and the “shrunken log2 fold change” value was -0.0712.

For RRIRERPPRLPRPRPRPERFPRP, the “shrunken log2 fold change” value was -0.0509.

In the case of RRIRIRPPRLPRPRPRPAYVPRP, the “shrunken log2 fold change” value is reported as -0.354.

For RRIRYRPPRLPRPRPRPDYTPRP, the “shrunken log2 fold change” value was -0.174.

With RRIRARPPRLPRPRPRPHCPPRP the “shrunken log2 fold change” value was -0.0475.

In the case of RRIRCRPPRLPRPRPRPAQYPRP, the “shrunken log2 fold change” value is reported as -0.467.

With RRIRKRPPRLPRPRPRPECWPRP the “shrunken log2 fold change” value was 0.744.

RRIRHRPPRLPRPRPRPSEDPRP was tested, and the “shrunken log2 fold change” value was -0.00172.

In the case of RRIRYRPPRLPRPRPRPEMAPRP, the “shrunken log2 fold change” value is reported as -0.107.

In the case of RRIRFRPPRLPRPRPRPKPSPRP, the “shrunken log2 fold change” value is reported as 0.462.

With RRIRHRPPRLPRPRPRPQSDPRP the “shrunken log2 fold change” value was 0.0136.

With RRIRARPPRLPRPRPRPRRQPRP the “shrunken log2 fold change” value was 0.453.

RRIRERPPRLPRPRPRPQLFPRP was tested, and the “shrunken log2 fold change” value was 0.0984.

RRIRTRPPRLPRPRPRPLTPPRP was tested, and the “shrunken log2 fold change” value was -0.0473.

With RRIRERPPRLPRPRPRPYNLPRP the “shrunken log2 fold change” value was -0.321.

For RRIRLRPPRLPRPRPRPRTQPRP, the “shrunken log2 fold change” value was 0.0772.

For RRIRTRPPRLPRPRPRPLHGPRP, the “shrunken log2 fold change” value was 0.184.

RRIRVRPPRLPRPRPRPMEFPRP was tested, and the “shrunken log2 fold change” value was -0.03.

For RRIRRRPPRLPRPRPRPTCWPRP, the “shrunken log2 fold change” value was 0.225.

With RRIRMRPPRLPRPRPRPDITPRP the “shrunken log2 fold change” value was 2.12.

RRIRWRPPRLPRPRPRPIKHPRP was tested, and the “shrunken log2 fold change” value was -0.2.

RRIRTRPPRLPRPRPRPDCKPRP was tested, and the “shrunken log2 fold change” value was -0.126.

RRIRSRPPRLPRPRPRPQPNPRP was tested, and the “shrunken log2 fold change” value was -0.00561.

In the case of RRIRERPPRLPRPRPRPKRIPRP, the “shrunken log2 fold change” value is reported as 0.103.

RRIRYRPPRLPRPRPRPFTCPRP was tested, and the “shrunken log2 fold change” value was -0.103.

With RRIRARPPRLPRPRPRPSNFPRP the “shrunken log2 fold change” value was -0.221.

In the case of RRIRGRPPRLPRPRPRPSIRPRP, the “shrunken log2 fold change” value is reported as 0.417.

For RRIRARPPRLPRPRPRPIPNPRP, the “shrunken log2 fold change” value was -0.069.

In the case of RRIRIRPPRLPRPRPRPSHAPRP, the “shrunken log2 fold change” value is reported as -0.283.

RRIRVRPPRLPRPRPRPHYRPRP was tested, and the “shrunken log2 fold change” value was -0.0502.

With RRIRGRPPRLPRPRPRPCHLPRP the “shrunken log2 fold change” value was -0.0648.

RRIRGRPPRLPRPRPRPKIAPRP was tested, and the “shrunken log2 fold change” value was 0.386.

With RRIRGRPPRLPRPRPRPPQMPRP the “shrunken log2 fold change” value was 1.77.

In the case of RRIRWRPPRLPRPRPRPNMDPRP, the “shrunken log2 fold change” value is reported as 0.0467.

RRIRTRPPRLPRPRPRPQKGPRP was tested, and the “shrunken log2 fold change” value was -0.00821.

For RRIRRRPPRLPRPRPRPCYRPRP, the “shrunken log2 fold change” value was 0.0724.

In the case of RRIRIRPPRLPRPRPRPWNAPRP, the “shrunken log2 fold change” value is reported as 0.0267.

For RRIRTRPPRLPRPRPRPSPWPRP, the “shrunken log2 fold change” value was -0.114.

RRIRIRPPRLPRPRPRPTCEPRP was tested, and the “shrunken log2 fold change” value was -0.132.

For RRIRERPPRLPRPRPRPYFTPRP, the “shrunken log2 fold change” value was -0.971.

With RRIRWRPPRLPRPRPRPNKQPRP the “shrunken log2 fold change” value was 0.103.

For RRIRVRPPRLPRPRPRPGISPRP, the “shrunken log2 fold change” value was -0.49.

For RRIRFRPPRLPRPRPRPVRHPRP, the “shrunken log2 fold change” value was 0.0636.

For RRIRTRPPRLPRPRPRPILDPRP, the “shrunken log2 fold change” value was 0.0371.

In the case of RRIRLRPPRLPRPRPRPNRCPRP, the “shrunken log2 fold change” value is reported as -0.231.

With RRIRDRPPRLPRPRPRPCSTPRP the “shrunken log2 fold change” value was 0.248.

In the case of RRIRERPPRLPRPRPRPTYFPRP, the “shrunken log2 fold change” value is reported as -0.475.

RRIRERPPRLPRPRPRPQPNPRP was tested, and the “shrunken log2 fold change” value was -0.084.

For RRIRARPPRLPRPRPRPYQYPRP, the “shrunken log2 fold change” value was -0.352.

With RRIRHRPPRLPRPRPRPQSNPRP the “shrunken log2 fold change” value was -0.288.

In the case of RRIRPRPPRLPRPRPRPECYPRP, the “shrunken log2 fold change” value is reported as 0.044.

In the case of RRIRMRPPRLPRPRPRPKAYPRP, the “shrunken log2 fold change” value is reported as 0.0225.

RRIRKRPPRLPRPRPRPACMPRP was tested, and the “shrunken log2 fold change” value was 0.605.

For RRIRIRPPRLPRPRPRPLVIPRP, the “shrunken log2 fold change” value was -1.46.

In the case of RRIRRRPPRLPRPRPRPMIPPRP, the “shrunken log2 fold change” value is reported as -0.062.

With RRIRKRPPRLPRPRPRPSLIPRP the “shrunken log2 fold change” value was -0.0338.

With RRIRGRPPRLPRPRPRPKSLPRP the “shrunken log2 fold change” value was 0.413.

For RRIRHRPPRLPRPRPRPKNSPRP, the “shrunken log2 fold change” value was -0.487.

For RRIRMRPPRLPRPRPRPAVWPRP, the “shrunken log2 fold change” value was 1.08.

With RRIRERPPRLPRPRPRPFEAPRP the “shrunken log2 fold change” value was -0.342.

For RRIRFRPPRLPRPRPRPNYPPRP, the “shrunken log2 fold change” value was -0.268.

RRIRQRPPRLPRPRPRPDETPRP was tested, and the “shrunken log2 fold change” value was -0.00179.

With RRIRERPPRLPRPRPRPNEYPRP the “shrunken log2 fold change” value was -0.726.

For RRIRFRPPRLPRPRPRPWICPRP, the “shrunken log2 fold change” value was -1.05.

RRIRYRPPRLPRPRPRPRSYPRP was tested, and the “shrunken log2 fold change” value was -0.879.

RRIRSRPPRLPRPRPRPTIDPRP was tested, and the “shrunken log2 fold change” value was -0.00141.

RRIRNRPPRLPRPRPRPAWRPRP was tested, and the “shrunken log2 fold change” value was 0.526.

RRIRQRPPRLPRPRPRPSESPRP was tested, and the “shrunken log2 fold change” value was -0.0923.

In the case of RRIRHRPPRLPRPRPRPPKVPRP, the “shrunken log2 fold change” value is reported as 0.0708.

For RRIRTRPPRLPRPRPRPWYLPRP, the “shrunken log2 fold change” value was -0.0692.

RRIRARPPRLPRPRPRPRKFPRP was tested, and the “shrunken log2 fold change” value was 0.421.

For RRIRFRPPRLPRPRPRPMVHPRP, the “shrunken log2 fold change” value was -0.468.

With RRIRWRPPRLPRPRPRPHYIPRP the “shrunken log2 fold change” value was -0.468.

For RRIRTRPPRLPRPRPRPPQVPRP, the “shrunken log2 fold change” value was -0.0388.

For RRIRNRPPRLPRPRPRPWLRPRP, the “shrunken log2 fold change” value was -0.0603.

RRIRVRPPRLPRPRPRPVKRPRP was tested, and the “shrunken log2 fold change” value was 0.0275.

In the case of RRIRTRPPRLPRPRPRPYIQPRP, the “shrunken log2 fold change” value is reported as -0.274.

With RRIRERPPRLPRPRPRPMRRPRP the “shrunken log2 fold change” value was -0.0292.

RRIRFRPPRLPRPRPRPEYMPRP was tested, and the “shrunken log2 fold change” value was -0.421.

With RRIRGRPPRLPRPRPRPCCEPRP the “shrunken log2 fold change” value was 0.528.

With RRIRTRPPRLPRPRPRPDSWPRP the “shrunken log2 fold change” value was -0.595.

RRIRERPPRLPRPRPRPTCAPRP was tested, and the “shrunken log2 fold change” value was -0.162.

For RRIRCRPPRLPRPRPRPTKIPRP, the “shrunken log2 fold change” value was 0.0473.

For RRIRFRPPRLPRPRPRPWRAPRP, the “shrunken log2 fold change” value was 0.0757.

With RRIRQRPPRLPRPRPRPHDQPRP the “shrunken log2 fold change” value was 0.00277.

In the case of RRIRVRPPRLPRPRPRPRIEPRP, the “shrunken log2 fold change” value is reported as 0.314.

For RRIRSRPPRLPRPRPRPVPAPRP, the “shrunken log2 fold change” value was 0.122.

RRIRVRPPRLPRPRPRPCDWPRP was tested, and the “shrunken log2 fold change” value was 0.192.

In the case of RRIRWRPPRLPRPRPRPIAWPRP, the “shrunken log2 fold change” value is reported as 0.713.

With RRIRTRPPRLPRPRPRPMEMPRP the “shrunken log2 fold change” value was -0.236.

For RRIRIRPPRLPRPRPRPACFPRP, the “shrunken log2 fold change” value was 0.199.

In the case of RRIRMRPPRLPRPRPRPKAAPRP, the “shrunken log2 fold change” value is reported as 3.33.

RRIRTRPPRLPRPRPRPEDAPRP was tested, and the “shrunken log2 fold change” value was 0.0648.

For RRIRNRPPRLPRPRPRPMFSPRP, the “shrunken log2 fold change” value was -0.186.

From the supplement of paper PMC9112550, “Optimization of the antimicrobial peptide Bac7 by deep mutational scanning” (BMC Biology, 2022)
